{"source": "the DeepSol protein solubility set"}
{"assay": "soluble on expression in E. coli; label from the status in PepcDB or PDB records"}
{"sequence": "MLFKARKWILSGASAQKSKSMAHTMLVENGFILPTAKGFYSLLPLGQRVIDKLCRILDVEFQNSGALKIAMPIVGTQQLWEKTGRWEAMGPEMIRFHDRQQNHMCLQPTAEEMCTELIATLSPLKKSQFPLIVYQIGEKFRDEMNPRFGLMRGRQFLMKDMYSFSTDAETSQQTYAQIRQIYDRIFGEILQLDEDVIKVEADSGVHGGHISHEYHLKSSLEEDFVNFCENCKNHNKFEGPGPAKCEKCAENSSKTVQKIPSVEIAHTFHLGTKYSEALGAKFQGKPLDMCCFGIGVTRLLPAAIDLLSVSDKALRLPRAIAPFDAVIIVKKSLMSNVIVEMASSSASRYLKGGILLDDRVEMSAGKRIHDANRLGIPFILVIANETERSLATQKPVIEVFTTHAKSAEPMSQGSMSLDRFVTFVQSTLYGGGGAHDSGHLAHNQVLDQLGSHQH", "soluble on expression in E. coli": "not soluble"}
{"sequence": "MLGHNKISVIIPAYNEERRIGNVLKGIPDFVDEVIVVDDGSSDGTSKVAMELGATVIRLNKNSGKGAAMREGLKISTGDIIVFMDADGQHNPKEIYRLVKPIVEGRADLVIGRRIITRGKRPMSRKISNFITTRLITLKTRKKILDTQSGFRAIRREFVPVIESDRYEVETEVLIKAIKKGARILEVPISTRYDVETGHFKMIDIFRFLFALIKYLEHHHHHH", "soluble on expression in E. coli": "not soluble"}
{"sequence": "MLGKEELRNQSIAVIGAGIIGLSIGLKLQQQGYHVTIFDPNGVGNGCSKGNAGHIATEQVFPLATPALIPQLPKMLLSSTSPVSIRWQDLPNTVGWMIRFLLKAKPSAAEASTQAITSLNTRAVQSWNLLLDSIGKSGLIKMDGSLLTFESESLFEGYQSTLDALAEQGVRYELWTQNEIRRRLPELSRKVRFGVFFPETGHTINPYALCVELSNAFEKLGGSLVHEEVDAVSKNGDVLVNTQRMSFDKIVVAAGVHSKALVRQLTGVNVPIQAERGYHLMMNDKRESLPFPISSADRKFIMTPMSEGLRLAGTVEYADVKSPPNMKRAEMLYQQGNAMFESGLNPLEQQEKWMGNRPSTIDSLPVIDQCFNGKIFLAFGHQHLGLTQAAITADLISELVADKPTSVNITPFTLQRFALEHHHHHH", "soluble on expression in E. coli": "not soluble"}
{"sequence": "MLGNIAEISNPNERRQAVKALVSAVKSDEDDSVRAAATDALYQRGEDAFDYLVAELAEMGGSEATERTATTLLTEWLSADHLEFRMVAATALGERGATAAVPDLVRALTDPAPRVRTRAAQACGRLSDPRVVPPLSERLSDGRQQVREAAANALGAIGTDRALAELVPVTQADEEGLRLIAVDELGQFGSVKPVVVLVDALDDDSTTVQRAAMLSLLELLTTASTEELELIRGTVVDELARADVQATVPALLDIAADGTRRRYRQTAIWLLSRITGDRYRSEVIDCLLSTLDKPDEETAQLAEAVLPELRSPELEKRLRVYLSRERGSEEARSRAQAVLDEICDGSSGELVTTGVDYTYVDSPADYTNQHSSRD", "soluble on expression in E. coli": "not soluble"}
{"sequence": "MLGVFQKRCASTAPLIRPIQRVLVANRGEIAIRVQNTARKMGIETVAVFSDADRNSLFVKKADKAYHIGPPLAAESYLNMDKIINSALRSGAQAIHPGYGFLSENAGFAEKCAQAGLVFIGPPAQAIRDMGAKNVSKQIMEDAKVPVVKGFHGEDQSDANLKKKSAEIGYPVMLKAVYGGGGKGMRIAWNEAEFEEKLASARNEAKKSFGNDEMLVEKFVEKPRHVEVQVFGDHHGNYVHLWERDCSVQRRHQKIIEEAPAPNMEHDTRVKLGESAVRAAAAVGYVGAGTVEFIMDPRGEFYFMEMNTRLQVEHPVSEAITGTDLVEWQLRVAQGEKLPLKQSEIPLNGHAFECRVYAEDTRKGAFMPTAGRLNYVDFPEDARIDTGVVSGDEVSIHYDPMIAKVVVWGQDRAVAAAKLESALARTRISGLPTNIDFVRRVLAHPEFAAGNVYTDFIPDHQKELFAESETPAEIYVESAVAHALAALQKSDAGVFQNLSFFRMNLSPKYIFKIDGKDVSIRFDSDSRLTVSYDGNSYETLLNDIESTTDGSFKFTLEANGRRWSTVVKNLGNSLMVNGVGQNEYETPQIHETFDSLSGGAASHSAVAPMPGIIEKILVKPGEQVTTGQALVVMTAMKMEYIIRAPEDSTVEHIKCQAGKNVPKNAVLVQFA", "soluble on expression in E. coli": "not soluble"}
{"sequence": "MLHTLHRSPWLTDFAALLRLLSEGDELLLLQDGVTAAVDGNRYLESLRNAPIKVYALNEDLIARGLTGQISNDIILIDYTDFVRLTVKHPSQMAW", "soluble on expression in E. coli": "soluble"}
{"sequence": "MLIRAMQKSDYEAVYKLWCEIKGFGIRSIDDSKENIENFLDRNPNLSVVAVIDEEIVGSILCGHDGRTGGFYHVCVHKDHRKKGIAHEMAKFCLEALKAQKINKIALIAFKNNDLGNEFWKHYGFTLREDANYYDLSLNEYNQTSFNA", "soluble on expression in E. coli": "not soluble"}
{"sequence": "MLIRRKIMQYNDMSKEELLVLKESLNKEYAEAKAKGLALDMSRGKPSAKQLDVSLGLLDTINSSSDLKSLDGTDCRNYGVLDGIPEAKKLMADMMGTTPDHVIVYGNASLNIMYDQISRAYTHGILGNTPWCKLDKVKFLCPVPGYDRHFAITERFGIEMINIPMSESGPDMGMVEEYVSKDASVKGIWCVPKYSNPQGYTYSEETVKRMAALKPAAEDFRIFWDNAYVIHDLYDDNKDEIADIISECEKAGNPDMVFEFASTSKVSFPGSGIAALATSANNIADIKKQLTIQTIGHDKLNQLRHVRFFKDINGLKEHMRKHAEFIRPKFEAVESVLEEELSGLGIGSWTEPKGGYFISFDAMDGCAKAIVAKCKEAGVKLTGAGATFPYGKDPKDSNIRIAPSFPTPEEMKQAADLFVLCVKLVSVEKLLENK", "soluble on expression in E. coli": "not soluble"}
{"sequence": "MLITERIYVLEDVDVQAFLGVNNSNLMLLRTLFPKLRLVAHHNVLKIMGDSRETDRFLEVLEPMVAYCREYNLLPEDVILRIAQGAKLPADDVPKHLILHGTGGKSIIARGDNQQKLVEAFEANDLVFAIGPAGTGKTFVAISLAVRALKSKQVRRIILSRPAVEAGEKLGFLPGEMKDKLDPYLQPLYDALEEMIPAVKLKEYIENNIIQIAPLAYMRGRTLNDAVVILDEAQNTTELQMKMFLTRLGANAKMIVTGDITQTDLPRGVHSGLRQALNILQGTRGIGYIAFQRADIVRHPLVQRVVDAYDRYDAERKKEAEAAAVVAQTI", "soluble on expression in E. coli": "not soluble"}
{"sequence": "MLKFFAALLFAVATMAQAQDNTLHTDLPLDYLAQANVETPDRPLVIFIHGYGSNAADLFGLKEHLPAGFNYLSVQAPVELQADSYKWFTQKKGGTDYDGVTEDLKSSGKRLTDFITQATEKFRTQPGKVFLVGFSQGAMMSYEVALRQPTLVGGFAALSGRLLPVVKSEVNASDDLKALKVFIGHGVQDRQVAYASGPQAEATLKSLGLTPQFHGYEGLGHSINEAEVVDLANWLQQSSR", "soluble on expression in E. coli": "not soluble"}
{"sequence": "MLKIISGKYRNQIIPTAKNIKYRPSTGKLKEAIFSILTSGEFTGNKLFNENTHILDLFAGSGSLAFESLSRGAGFATLIDIDTSSLKIAEGFAKSLNIENNVNFVNINALNLPKATRHLFKPAYREGSKGDTEHSTAAYTLVREDASTGSTFKLPLEAKFGKMSNKSFDLVFIDPPYHKNIVPKVMKLLIKNNWLKDGAIIVIEMAKTDDYILDENIEIIREKLYGKSKLLVLSFTVIPAKAGIQ", "soluble on expression in E. coli": "not soluble"}
{"sequence": "MLKKAEKFEKIFRLESSLRALERVRDFLSQESYERLRELVLIRLKGIKIEEKELNSKVAVAFSGGSDSSATYKILAWAGFKVYPITAKLPQMRDEVLKRLESGGAIFVEIPEYMEVMEDLIRKRTAICGRCHSMVMRAVEERARELGAEIVASGDMLTVGSGSIYEKDGIVILNLPAFLALDKKELLEILGWKKYELKYGCPLWKEAAKRAPVLKKFGLQRVLRELRGGALPKEFAKELIIDILRA", "soluble on expression in E. coli": "not soluble"}
{"sequence": "MLKMSTRTEAMSDKQVRAQYTREFKLEAVRQVRAGQAIAGVAKVLGIPKASLGNGVRLAAKGALGGSGGSDKADRVSPEQMEIARLRAEVARLRMERDIAKKAAAYFAQDTLRGTPGLTQLEHHHHHH", "soluble on expression in E. coli": "not soluble"}
{"sequence": "MLKQSLATLLLCSTLSPLAVVLPTLAGPGDGGMGWGAKVENLNLTPEQRQNLQAIRQRYQSQIEETRTQLRTAKDELRRLMASNASDEQIRAKHAQVQQLQQKLATLRFESMLATRKILTPEQRQALAERMQNRQGQRRLERLEHHHHHH", "soluble on expression in E. coli": "soluble"}
{"sequence": "MLKVAIAEDDFRVAQIQEEFLSKIKDVTVIGKALNAKETIELLQKEEIDLLLLDNYLPDGIGTDLLPQIHADFPNVDVIMVTAANENYMLEKAIRNGVSNYLIKPVTLEKFVRTIEDYKRKKQLLHSNNEVNQALIDNFFGTSQTQDIKNLPTGVDPLTLQKVKGIIKGFEEGITIEEMGEQMGASRTTARRYLEYLVATNECTVEYKYGIIGRPERKYRIGRGL", "soluble on expression in E. coli": "not soluble"}
{"sequence": "MLLAYSMKVVYHLFSGGKDSSLAAWILKKLGYEVKLITITFGVLDNWKFARETAEILGFDHEVIEMPIGILEKATEMCIKEGRAGNAIQYIHERALEYIASREEVKRISDGTRRDDRVPFLDLSKARSLEDRYNVAYIRPLLGLGYKTIRELVNEIFVVVEDESEKVQKGDYETELRELIRRKGHDPSQIFPKRHVQSRVVGLR", "soluble on expression in E. coli": "not soluble"}
{"sequence": "MLLEERLSQISQIIDKEGSATIDFLAQKLEVSKDTIRRDLIKLESRKKLHRVHGGAIPIGKEAEILNYEERSNISTSLKKKIASKIKNLIKDHSTLIFDSSTTVEVAIKQLDNFSISTITNSLTNAILLSKYEMATVQLLPGKLNKNQLFLYGAETVEKLSQYQVDFTILGVFALSNNGLFIHTEEEGLVKRKMIQQGKQVIAIADHTKLNKEGFFKICDLKEIDYLITDEKIEGELMNNLNDNNVKVVTINELEHHHHHH", "soluble on expression in E. coli": "soluble"}
{"sequence": "MLLELIPLLGIHFVLRTARAQSVTQPDIHITVSEGASLELRCNYSYGATPYLFWMERTVEEAFILLVCLKPWRVASSLEKKEKEDESFQLLLGSRYNVLEAHCLLPLIRWLTSGDSLLSAQPHCPQEL", "soluble on expression in E. coli": "not soluble"}
{"sequence": "MLLGEGAFGQVFKGILRGPNGQVIPVAVKQLKANAIDEEREEFVREIQMMQTVGQHDNIVTMYGYCMDEQLQCMIMEYVPYGDLKHYLQNMRKEKDSDSAIDSKEFLSFTNQIACGMAHLESVGIIHRDLAARNILVGTGKVLKISDFGMSRPGVYIKMSKGVIPLRWLSPEAIKDNTYSNKSDVWAFGVLLWEIATLGGFPYNNVADKDILNQLTEGMRLEQPAKCSDDMYILMKSCWNLKAEDRPSFLAILSKIEQIANVDADAPPSDPPAKDV", "soluble on expression in E. coli": "not soluble"}
{"sequence": "MLLKLKCTVNNYAWGPKGNSSMAGSLALDGGHIPNLDKDKPYAEFWVGTHANGPAHVIEKDIALKQLLATSPELQGKHEKGNLSFLFKVLSVLGPLSIQIHPTKEQGKLLHATDPKNYPDDNHKPEIAIALTEFELLSGFRQHSQISEYLKLYSEIQELLTEEEKSQIDSLGSYGESSAQVLKKIFSRIWRTPKEKLQIVVDKLARRIQGHENKTALDEIIVYLFTLYPGDVGVFAPIFLNYFKLQPGEATFLEPNMPHAYLKGDCVECMADSDNTIRAGLTPKYIDVESLVEMLNYDETLLPKYIPNELDDGSLLFTPRGIDEFWVQEVKGPAGSIYQLPYSESCSVLTVLYGTATVTLGDASQVLNRGEVVFIGATHDAERPKINISDDFLAFRAFTPSPRALESLSNKRLIID", "soluble on expression in E. coli": "not soluble"}
{"sequence": "MLLKSIHHIAIICSDYEKSKAFYVHKLGFQVIQETYREERGSYKLDLSLNGSYVIELFSFPDPPERQTRPEAAGLRHLAFTVGSLDKAVQELHEKGIETEPIRTDPLTGKRFTFFFDPDQLPLELYEQ", "soluble on expression in E. coli": "not soluble"}
{"sequence": "MLLPRCCWGRWLMGRRPRCSCQAPAGFDGKDGRGSRVREMPPWRVLFLGTDHFARETLRALHAARDGKEEKLIEKLEVVTVPSLSPKGLPVKQYAIQSQLPVYEWPDVGSGEYDVGVVASFGRLLSEALILKFPYGILNVHPSCLPRWRGPAPIIHTVLHGDTVTGVTIMQIRPKRFDIGPILQQETIPVPPKSTSKELEAVLSKLGANMLISVLKNLPESLNNGRPQPAEGVTYAPKVSAGTSCVKWEEQTSEQVLRLHLAIGDIVPLQTLWMENTVKLLDLVEVNNSILADPKLTGQTVTPGFVVYHRPSQMLLVRCKDGWIGVRSVMLKKTLTATDFYNGYLHAWYQKNSHAHPSQCRFQTLRLPTKMQQKTKLLLCNSALSS", "soluble on expression in E. coli": "soluble"}
